The Human Domainome abundance scans (Beltran et al. 2025)
± gives the uncertainty stated by the source.

B1: Chromodomain-helicase-DNA-binding protein 4, residues 365 to 417; numbered along this chain, Q14839 (parent)
chain: YETDHQDYCEVCQQGGEIILCDTCPRAYHMVCLDPDMEKAPEGKWSCPHCEKE

Variants of: B1
Assay: abundance fitness (aPCA) (normalised: wild type 0, dead -1); higher = more abundant; growth selection in yeast, the domain comes from the species named
Conditions: Homo sapiens

Variant | abundance fitness
M37L | -0.059 ± 0.11
M37I | -0.023 ± 0.19
M37C | 0.34 ± 0.18
M37H | -0.217 ± 0.22
M37W | 0.079 ± 0.12
M37D | -0.451 ± 0.23
M37K | -0.242 ± 0.24
V31K | 0.027 ± 0.17
V31R | -0.032 ± 0.1
V31L | 0.258 ± 0.098
V31H | 0.104 ± 0.18
V31N | 0.113 ± 0.21
V31M | -0.417 ± 0.16
V31T | -0.431 ± 0.17
V31F | -0.031 ± 0.16
V31G | -0.017 ± 0.091
V31W | -0.236 ± 0.14
V31I | -0.234 ± 0.15
V31Q | -0.1 ± 0.14
V31Y | 0.112 ± 0.16
V31S | 0.044 ± 0.11
V31P | 0 ± 0.14
K44W | 0.098 ± 0.12
K44V | -0.109 ± 0.11

Variant | abundance fitness
K44R | 0.05 ± 0.097
K44F | -0.028 ± 0.16
K44P | 0.062 ± 0.14
K44H | -0.3 ± 0.21
K44C | -0.152 ± 0.14
K44E | 0.079 ± 0.14
K44I | -0.427 ± 0.3
K44Q | 0.309 ± 0.13
K44A | -0.017 ± 0.15
K44T | 0.218 ± 0.15
K44S | 0.102 ± 0.11
K44Y | -0.31 ± 0.18
K44N | -0.373 ± 0.29
K44M | -0.066 ± 0.12
K44L | -0.145 ± 0.1
K44G | 0.164 ± 0.095
K39C | -0.347 ± 0.12
K39P | -0.094 ± 0.15
K39V | 0.1 ± 0.11
K39T | -0.217 ± 0.15
K39N | -0.264 ± 0.23
K39S | -0.203 ± 0.1
K39H | -0.237 ± 0.28
K39E | -0.077 ± 0.13

Variant | abundance fitness
K39G | 0.008 ± 0.096
K39F | -0.472 ± 0.15
K39W | -0.172 ± 0.11
K39M | 0.115 ± 0.16
K39L | -0.132 ± 0.1
K39Q | -0.323 ± 0.18
K39I | -0.125 ± 0.18
K39R | -0.082 ± 0.093
K39Y | -0.077 ± 0.17
K39A | -0.06 ± 0.14
D34H | -0.069 ± 0.18
D34Q | -0.257 ± 0.2
D34C | 0.018 ± 0.16
D34S | -0.146 ± 0.11
D34G | 0.037 ± 0.094
D34P | -0.149 ± 0.18
D34W | 0.009 ± 0.14
D34T | -0.047 ± 0.14
D34A | -0.07 ± 0.12
D34I | -0.463 ± 0.2
D34F | -0.282 ± 0.14
D34K | -0.314 ± 0.12
D34V | -0.094 ± 0.099
D34Y | -0.118 ± 0.15

Variant | abundance fitness
D34L | -0.025 ± 0.097
D34N | -0.091 ± 0.17
D34R | -0.145 ± 0.092
C47K | -0.81 ± 0.2
C47F | -0.565 ± 0.24
C47H | -0.477 ± 0.33
C47A | -0.756 ± 0.12
C47L | -0.75 ± 0.14
C47Q | -0.833 ± 0.21
C47R | -0.848 ± 0.11
C47G | -0.867 ± 0.11
C47N | -0.5 ± 0.27
C47V | -1.11 ± 0.16
C47W | -1.09 ± 0.16
C47E | -0.331 ± 0.14
C47P | -0.657 ± 0.17
C47S | -0.99 ± 0.14
C47T | -0.43 ± 0.15
C47Y | -0.811 ± 0.22
C47D | -0.468 ± 0.17
C47M | -0.882 ± 0.17
S46L | -0.168 ± 0.1
S46Y | -0.003 ± 0.16
S46C | 0.031 ± 0.16

Variant | abundance fitness
S46T | -0.07 ± 0.15
S46N | 0.039 ± 0.17
S46A | -0.18 ± 0.11
S46F | 0.125 ± 0.15
S46E | -0.039 ± 0.13
S46I | -0.489 ± 0.23
S46P | -0.258 ± 0.14
S46K | -0.65 ± 0.18
S46M | -0.197 ± 0.15
S46R | -0.137 ± 0.092
S46G | -0.23 ± 0.086
S46W | 0.014 ± 0.12
S46Q | 0.054 ± 0.14
S46H | 0.068 ± 0.3
S46D | -0.168 ± 0.14
D36T | 0.078 ± 0.22
D36N | 0.026 ± 0.2
D36K | 0.06 ± 0.18
D36Y | -0.657 ± 0.23
D36P | -0.136 ± 0.13
D36V | -0.052 ± 0.11
D36E | 0.13 ± 0.17
D36G | -0.079 ± 0.1
D36A | -0.079 ± 0.12

Variant | abundance fitness
D36W | -0.37 ± 0.14
D36I | -0.245 ± 0.17
D36R | -0.055 ± 0.12
D36L | -0.5 ± 0.12
D36H | 0.161 ± 0.23
D36M | -0.185 ± 0.2
D36Q | -0.05 ± 0.19
D36S | 0.202 ± 0.11
D36F | -0.325 ± 0.19
W45H | -0.119 ± 0.21
W45T | 0.085 ± 0.16
W45K | -0.483 ± 0.27
W45I | 0.057 ± 0.19
W45L | -0.218 ± 0.097
W45G | 0.025 ± 0.085
W45P | -0.161 ± 0.22
W45Y | -0.207 ± 0.18
W45M | 0.179 ± 0.15
W45E | 0.083 ± 0.16
W45Q | 0.109 ± 0.14
W45A | 0.005 ± 0.13
W45D | -0.313 ± 0.2
W45F | -0.159 ± 0.15
W45V | 0.115 ± 0.11

Variant | abundance fitness
W45C | -0.101 ± 0.13
W45S | 0.098 ± 0.1
W45N | -0.051 ± 0.18
W45R | -0.162 ± 0.09
P48Y | -0.101 ± 0.16
P48I | -0.308 ± 0.27
P48N | -0.678 ± 0.3
P48D | -0.16 ± 0.19
P48V | -0.04 ± 0.11
P48H | -0.057 ± 0.19
P48L | -0.126 ± 0.1
P48E | -0.151 ± 0.12
P48K | -0.29 ± 0.18
P48Q | -0.133 ± 0.15
P48T | -0.132 ± 0.12
P48S | 0.058 ± 0.1
P48W | -0.622 ± 0.14
P48C | -0.001 ± 0.19
P48A | -0.002 ± 0.11
P48G | -0.068 ± 0.098
P48R | 0.063 ± 0.1
P48M | 0.07 ± 0.12
P48F | -0.165 ± 0.22
